From article PMC7026398, “Structural and functional insight into the effect of AFF4 dimerization on activation of HIV-1 proviral transcription” (Cell Discovery, 2020)

Columns and labels:
[1] = molecular target: Flag-AFF4 F1014A, full length (human) (UniProt Q9UHB7)
[2] = molecular target: Flag-AFF4 Y1096A, full length (human) (UniProt Q9UHB7)
[3] = molecular target: the molecule itself; assay: SEC; analytical gel filtration, Superdex 75 10/300 increase, 25 mM Tris pH 8.0, 150 mM NaCl, 2 mM DTT; 6 mg/ml, 100 μl injected; self-association, dimer or monomer by elution volume

B1: Flag-AFF4 F1014A, full length (natural protein)
chain: MNREDRNVLRMKERERRNQEIQQGEDAFPPSSPLFAEPYKVTSKEDKLSSRIQSMLGNYDEMKDFIGDRSIPKLVAIPKPTVPPSADEKSNPNFFEQRHGGSHQSSKWTPVGPAPSTSQSQKRSSGLQSGHSSQRTSAGSSSGTNSSGQRHDRESYNNSGSSSRKKGQHGSEHSKSRSSSPGKPQAVSSLNSSHSRSHGNDHHSKEHQRSKSPRDPDANWDSPSRVPFSSGQHSTQSFPPSLMSKSNSMLQKPTAYVRPMDGQESMEPKLSSEHYSSQSHGNSMTELKPSSKAHLTKLKIPSQPLDASASGDVSCVDEILKEMTHSWPPPLTAIHTPCKTEPSKFPFPTKESQQSNFGTGEQKRYNPSKTSNGHQSKSMLKDDLKLSSSEDSDGEQDCDKTMPRSTPGSNSEPSHHNSEGADNSRDDSSSHSGSESSSGSDSESESSSSDSEANEPSQSASPEPEPPPTNKWQLDNWLNKVNPHKVSPASSVDSNIPSSQGYKKEGREQGTGNSYTDTSGPKETSSATPGRDSKTIQKGSESGRGRQKSPAQSDSTTQRRTVGKKQPKKAEKAAAEEPRGGLKIESETPVDLASSMPSSRHKAATKGSRKPNIKKESKSSPRPTAEKKKYKSTSKSSQKSREIIETDTSSSDSDESESLPPSSQTPKYPESNRTPVKPSSVEEEDSFFRQRMFSPMEEKELLSPLSEPDDRYPLIVKIDLNLLTRIPGKPYKETEPPKGEKKNVPEKHTREAQKQASEKVSNKGKRKHKNEDDNRASESKKPKTEDKNSAGHKPSSNRESSKQSAAKEKDLLPSPAGPVPSKDPKTEHGSRKRTISQSSSLKSSSNSNKETSGSSKNSSSTSKQKKTEGKTSSSSKEVKEKAPSSSSNCPPSAPTLDSSKPRRTKLVFDDRNYSADHYLQEAKKLKHNADALSDRFEKAVYYLDAVVSFIECGNALEKNAQESKSPFPMYSETVDLIKYTMKLKNYLAPDATAADKRLTVLCLRCESLLYLRLAKLKKENALKYSKTLTEHLKNSYNNSQAPSPGLGSKAVGMPSPVSPKLSPGNSGNYSSGASSASASGSSVTIPQKIHQMAASYVQVTSNFLYATEIWDQAEQLSKEQKEFFAELDKVMGPLIFNASIMTDLVRYTRQGLHWLRQDAKLIS
With B1 the HIV-LTR-luciferase reporter in NH1 cells, overexpressed Flag-AFF4 mutant against wild type (% less than wild type) [1] was 10.

B2: Flag-AFF4 Y1096A, full length (natural protein)
chain: MNREDRNVLRMKERERRNQEIQQGEDAFPPSSPLFAEPYKVTSKEDKLSSRIQSMLGNYDEMKDFIGDRSIPKLVAIPKPTVPPSADEKSNPNFFEQRHGGSHQSSKWTPVGPAPSTSQSQKRSSGLQSGHSSQRTSAGSSSGTNSSGQRHDRESYNNSGSSSRKKGQHGSEHSKSRSSSPGKPQAVSSLNSSHSRSHGNDHHSKEHQRSKSPRDPDANWDSPSRVPFSSGQHSTQSFPPSLMSKSNSMLQKPTAYVRPMDGQESMEPKLSSEHYSSQSHGNSMTELKPSSKAHLTKLKIPSQPLDASASGDVSCVDEILKEMTHSWPPPLTAIHTPCKTEPSKFPFPTKESQQSNFGTGEQKRYNPSKTSNGHQSKSMLKDDLKLSSSEDSDGEQDCDKTMPRSTPGSNSEPSHHNSEGADNSRDDSSSHSGSESSSGSDSESESSSSDSEANEPSQSASPEPEPPPTNKWQLDNWLNKVNPHKVSPASSVDSNIPSSQGYKKEGREQGTGNSYTDTSGPKETSSATPGRDSKTIQKGSESGRGRQKSPAQSDSTTQRRTVGKKQPKKAEKAAAEEPRGGLKIESETPVDLASSMPSSRHKAATKGSRKPNIKKESKSSPRPTAEKKKYKSTSKSSQKSREIIETDTSSSDSDESESLPPSSQTPKYPESNRTPVKPSSVEEEDSFFRQRMFSPMEEKELLSPLSEPDDRYPLIVKIDLNLLTRIPGKPYKETEPPKGEKKNVPEKHTREAQKQASEKVSNKGKRKHKNEDDNRASESKKPKTEDKNSAGHKPSSNRESSKQSAAKEKDLLPSPAGPVPSKDPKTEHGSRKRTISQSSSLKSSSNSNKETSGSSKNSSSTSKQKKTEGKTSSSSKEVKEKAPSSSSNCPPSAPTLDSSKPRRTKLVFDDRNYSADHYLQEAKKLKHNADALSDRFEKAVYYLDAVVSFIECGNALEKNAQESKSPFPMYSETVDLIKYTMKLKNYLAPDATAADKRLTVLCLRCESLLYLRLFKLKKENALKYSKTLTEHLKNSYNNSQAPSPGLGSKAVGMPSPVSPKLSPGNSGNYSSGASSASASGSSVTIPQKIHQMAASAVQVTSNFLYATEIWDQAEQLSKEQKEFFAELDKVMGPLIFNASIMTDLVRYTRQGLHWLRQDAKLIS
In the case of B2, the HIV-LTR-luciferase reporter in NH1 cells, overexpressed Flag-AFF4 mutant against wild type (fold less than wild type) [2] is reported as 1.

B3: human AFF4-THD (902-1163), wild type (domain or fragment, UniProt Q9UHB7 902-1163, looked up)
chain: RRTKLVFDDRNYSADHYLQEAKKLKHNADALSDRFEKAVYYLDAVVSFIECGNALEKNAQESKSPFPMYSETVDLIKYTMKLKNYLAPDATAADKRLTVLCLRCESLLYLRLFKLKKENALKYSKTLTEHLKNSYNNSQAPSPGLGSKAVGMPSPVSPKLSPGNSGNYSSGASSASASGSSVTIPQKIHQMAASYVQVTSNFLYATEIWDQAEQLSKEQKEFFAELDKVMGPLIFNASIMTDLVRYTRQGLHWLRQDAKLIS
notes: AFF4 THD (TPRL with Handle Region Dimerization Domain, C-terminal homology domain), human, residues 902-1163; A selenomethionyl form was used for phasing only; The general purification text tells of TEV digestion and removal of the His6-tag, but only the N-terminal tag of AFF1-THD is called removable; also called AFF-THD; THD of AFF4; source: E. coli BL21 (DE3), purified (Ni-NTA, Hi-Trap SP HP, …)
For B3, the “stoichiometry N” value [3] was 2.

B4: AFF4-THD S1025A (domain or fragment, human, UniProt Q9UHB7 902-1163, looked up)
chain: RRTKLVFDDRNYSADHYLQEAKKLKHNADALSDRFEKAVYYLDAVVSFIECGNALEKNAQESKSPFPMYSETVDLIKYTMKLKNYLAPDATAADKRLTVLCLRCESLLYLRLFKLKKENALKYAKTLTEHLKNSYNNSQAPSPGLGSKAVGMPSPVSPKLSPGNSGNYSSGASSASASGSSVTIPQKIHQMAASYVQVTSNFLYATEIWDQAEQLSKEQKEFFAELDKVMGPLIFNASIMTDLVRYTRQGLHWLRQDAKLIS
notes: AFF4 THD, human, residues 902-1163, with S1025A; PDB 6K7P is the wild-type parent of the same limits; source: E. coli BL21 (DE3), purified (Ni-NTA, Hi-Trap SP HP, Superdex 200)
B4: binds [3].

B5: AFF4-THD V1097A (domain or fragment, human, UniProt Q9UHB7 902-1163, looked up)
chain: RRTKLVFDDRNYSADHYLQEAKKLKHNADALSDRFEKAVYYLDAVVSFIECGNALEKNAQESKSPFPMYSETVDLIKYTMKLKNYLAPDATAADKRLTVLCLRCESLLYLRLFKLKKENALKYSKTLTEHLKNSYNNSQAPSPGLGSKAVGMPSPVSPKLSPGNSGNYSSGASSASASGSSVTIPQKIHQMAASYAQVTSNFLYATEIWDQAEQLSKEQKEFFAELDKVMGPLIFNASIMTDLVRYTRQGLHWLRQDAKLIS
notes: AFF4 THD, human, residues 902-1163, with V1097A; PDB 6K7P is the wild-type parent of the same limits; also called AFF4-THD^Val1097A; Val1097A; source: E. coli BL21 (DE3), purified (Ni-NTA, Hi-Trap SP HP, Superdex 200)
B5: binds [3].

B6: AFF4-THD T1100A+Y1096F (domain or fragment, human, UniProt Q9UHB7 902-1163, looked up)
chain: RRTKLVFDDRNYSADHYLQEAKKLKHNADALSDRFEKAVYYLDAVVSFIECGNALEKNAQESKSPFPMYSETVDLIKYTMKLKNYLAPDATAADKRLTVLCLRCESLLYLRLFKLKKENALKYSKTLTEHLKNSYNNSQAPSPGLGSKAVGMPSPVSPKLSPGNSGNYSSGASSASASGSSVTIPQKIHQMAASFVQVASNFLYATEIWDQAEQLSKEQKEFFAELDKVMGPLIFNASIMTDLVRYTRQGLHWLRQDAKLIS
notes: AFF4 THD, human, residues 902-1163, with T1100A and Y1096F; PDB 6K7P is the wild-type parent of the same limits; source: E. coli BL21 (DE3), purified (Ni-NTA, Hi-Trap SP HP, Superdex 200)
B6: binds [3].

B7: AFF4-THD Y1024A (domain or fragment, human, UniProt Q9UHB7 902-1163, looked up)
chain: RRTKLVFDDRNYSADHYLQEAKKLKHNADALSDRFEKAVYYLDAVVSFIECGNALEKNAQESKSPFPMYSETVDLIKYTMKLKNYLAPDATAADKRLTVLCLRCESLLYLRLFKLKKENALKASKTLTEHLKNSYNNSQAPSPGLGSKAVGMPSPVSPKLSPGNSGNYSSGASSASASGSSVTIPQKIHQMAASYVQVTSNFLYATEIWDQAEQLSKEQKEFFAELDKVMGPLIFNASIMTDLVRYTRQGLHWLRQDAKLIS
notes: AFF4 THD, human, residues 902-1163, with Y1024A; PDB 6K7P is the wild-type parent of the same limits; source: E. coli BL21 (DE3), purified (Ni-NTA, Hi-Trap SP HP, Superdex 200)
B7: binds [3].

B8: AFF1-THD (953-1210), wild type (domain or fragment, UniProt P51825 953-1210, looked up)
chain: GKPQVKFDKQQADLHMREAKKMKQKAELMTDRVGKAFKYLEAVLSFIECGIATESESQSSKSAYSVYSETVDLIKFIMSLKSFSDATAPTQEKIFAVLCMRCQSILNMAMFRCKKDIAIKYSRTLNKHFESSSKVAQAPSPCIASTGTPSPLSPMPSPASSVGSQSSAGSVGSSGVAATISTPVTIQNMTSSYVTITSHVLTAFDLWEQAEALTRKNKEFFARLSTNVCTLALNSSLVDLVHYTRQGFQQLQELTKTP
notes: AFF1 THD, residues 953-1210; the limits 953-1210 fit human AFF1; also called wild-type AFF1-THD; source: E. coli BL21 (DE3), purified (Ni-NTA, Hi-Trap SP HP, TEV digestion, Superdex 200); not shown: His6, N-terminal, cleaved
For B8, the “stoichiometry N” value [3] was 2.

B9: AFF1-THD Y1145A (domain or fragment, UniProt P51825 953-1210, looked up)
chain: GKPQVKFDKQQADLHMREAKKMKQKAELMTDRVGKAFKYLEAVLSFIECGIATESESQSSKSAYSVYSETVDLIKFIMSLKSFSDATAPTQEKIFAVLCMRCQSILNMAMFRCKKDIAIKYSRTLNKHFESSSKVAQAPSPCIASTGTPSPLSPMPSPASSVGSQSSAGSVGSSGVAATISTPVTIQNMTSSAVTITSHVLTAFDLWEQAEALTRKNKEFFARLSTNVCTLALNSSLVDLVHYTRQGFQQLQELTKTP
notes: AFF1 THD, residues 953-1210, with Y1145A; also called AFF1^Y1145A; source: E. coli BL21 (DE3), purified (Ni-NTA, Hi-Trap SP HP, TEV digestion, Superdex 200); not shown: His6, N-terminal, cleaved
B9: binds [3].

B10: AFF1-THD F1063A+Y1145A (domain or fragment, UniProt P51825 953-1210, looked up)
chain: GKPQVKFDKQQADLHMREAKKMKQKAELMTDRVGKAFKYLEAVLSFIECGIATESESQSSKSAYSVYSETVDLIKFIMSLKSFSDATAPTQEKIFAVLCMRCQSILNMAMARCKKDIAIKYSRTLNKHFESSSKVAQAPSPCIASTGTPSPLSPMPSPASSVGSQSSAGSVGSSGVAATISTPVTIQNMTSSAVTITSHVLTAFDLWEQAEALTRKNKEFFARLSTNVCTLALNSSLVDLVHYTRQGFQQLQELTKTP
notes: AFF1 THD, residues 953-1210, with F1063A and Y1145A; source: E. coli BL21 (DE3), purified (Ni-NTA, Hi-Trap SP HP, TEV digestion, Superdex 200); not shown: His6, N-terminal, cleaved
B10: binds [3].

B11: AFF1-THD F1063A (domain or fragment, UniProt P51825 953-1210, looked up)
chain: GKPQVKFDKQQADLHMREAKKMKQKAELMTDRVGKAFKYLEAVLSFIECGIATESESQSSKSAYSVYSETVDLIKFIMSLKSFSDATAPTQEKIFAVLCMRCQSILNMAMARCKKDIAIKYSRTLNKHFESSSKVAQAPSPCIASTGTPSPLSPMPSPASSVGSQSSAGSVGSSGVAATISTPVTIQNMTSSYVTITSHVLTAFDLWEQAEALTRKNKEFFARLSTNVCTLALNSSLVDLVHYTRQGFQQLQELTKTP
notes: AFF1 THD, residues 953-1210, with F1063A; also called AFF1^F1063A; source: E. coli BL21 (DE3), purified (Ni-NTA, Hi-Trap SP HP, TEV digestion, Superdex 200); not shown: His6, N-terminal, cleaved
B11: binds [3].
